The supplement of paper PMC7877785
± gives the uncertainty stated by the source.

Test: self-splicing fitness, log relative to wild type (ln ratio); higher = more splicing; Tetrahymena group I intron in knt gene, E. coli kanamycin selection, DiMSum; sequences stand for … in CUCUCU…GGAGGGAAAAGUUAUCAGGCAUGCACCUGGUAGCUAGUCUUUAAACCAAUAGAUUGCAUCGGUUUAAAAGGCAAGACCGUCAAAUUGCGGGAAAGGGGUCAACAGCCGUUCAGUACCAAGUCUCAGGGGAAACUUUGAGAUGGCCUUGCAAAGGGUAUGGUAAUAAGCUGACGGACAUGGUCCUAACCACGCAGCCAAGUCCUAAGUCAACAGAUCUUCUGUUGAUAUGGAUGCAGUUCACAGACUAAAUGUCGGUCGGGGAAGAUGUAUUCUUCUCAUAAGAUAUAGUCGGACCUCUCCUUAAUGGGAGCUAGCGGAUGAAGUGAUGCAACACUGGAGCCGCUGGGAACUAAUUUGUAUGCGAAAGUAUAUUGAUUAGUUUUGGAGUACUCGUGGUCG
In short: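 Six replicate transformations of E. coli BL21(DE3) with a pET-22b(+) library were grown overnight at 37°C or 30°C. The library randomised all eight P1ex-region intron nucleotides, the intron lying in the knt kanamycin-resistance gene, and plates were LB agar with or without 25 μg/mL kanamycin plus 100 μg/mL carbenicillin, 50 μM IPTG and 0.2% rhamnose. Pooled colonies were amplicon-sequenced on an Illumina HiSeq 2500, and fitness is the DiMSum error-weighted combination of wild-type-normalised replicate fold changes, kanamycin versus none.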

| Sequence | self-splicing fitness (ln) (30 °C) | self-splicing fitness (ln) (37 °C) |
| --- | --- | --- |
| CUAGAGCAAUAUUACGGUAA | -3.52 ± 0.29 | -1.5 ± 0.16 |
| CUAGAGCAAUAUUACGGUCG | 0.342 ± 0.11 | -0.264 ± 0.13 |
| CUAGAGCAAUAUUACGUACG | -0.818 ± 0.082 | 0.268 ± 0.12 |
| CUAGAGCAAUAUUACGUAGU | -2.72 ± 0.22 | -1.94 ± 0.33 |
| CUAGAGCAAUAUUACGUAUA | -3.08 ± 0.49 |  |
| CUAGAGCAAUAUUACGUCGG | -0.971 ± 0.095 | -0.975 ± 0.1 |
| CUAGAGCAAUAUUACGUCUC | -3.75 ± 0.2 | -2.76 ± 0.25 |
| CUAGAGCAAUAUUACGUGAC | -1.08 ± 0.12 | -1.31 ± 0.17 |
| CUAGAGCAAUAUUACGUUCA | -3.21 ± 0.24 | -1.36 ± 0.29 |
| CUAGAGCAAUAUUACGUUGA | -4.21 ± 0.34 | -3.11 ± 0.38 |
| CUAUAGCAAUAUUACGAAUU | -2.02 ± 0.39 | -2.26 ± 0.46 |
| CUAUAGCAAUAUUACGACAA | -2.79 ± 0.5 | -2.64 ± 0.44 |
| CUAUAGCAAUAUUACGACGC | -3.02 ± 0.36 | -2.14 ± 0.38 |
| CUAUAGCAAUAUUACGAGCA | -2.91 ± 0.25 | -2.36 ± 0.33 |
| CUAUAGCAAUAUUACGAGUC | -2.61 ± 0.24 | -2.52 ± 0.3 |
| CUAUAGCAAUAUUACGAUUC | -3.51 ± 0.26 | -1.71 ± 0.21 |
| CUAUAGCAAUAUUACGCAAU | -3.66 ± 0.24 | -1.58 ± 0.21 |
| CUAUAGCAAUAUUACGCCGG | -1.65 ± 0.21 | -0.422 ± 0.25 |
| CUAUAGCAAUAUUACGCGUA | -1.43 ± 0.31 | -2.86 ± 0.31 |
| CUAUAGCAAUAUUACGCGUG | -1.27 ± 0.1 | -0.122 ± 0.12 |
| CUAUAGCAAUAUUACGGAAC |  | -1.63 ± 0.49 |
| CUAUAGCAAUAUUACGGACU |  | -1.89 ± 0.31 |

| Sequence | self-splicing fitness (ln) (30 °C) | self-splicing fitness (ln) (37 °C) |
| --- | --- | --- |
| CUAUAGCAAUAUUACGGAUG | -0.942 ± 0.11 | -0.343 ± 0.11 |
| CUAUAGCAAUAUUACGGCCG | 0.0895 ± 0.15 | -0.314 ± 0.15 |
| CUAUAGCAAUAUUACGGGGC |  | -1.7 ± 0.33 |
| CUAUAGCAAUAUUACGUACA | -2.36 ± 0.17 | -2.05 ± 0.2 |
| CUAUAGCAAUAUUACGUAGC | -4.05 ± 0.31 | -3.11 ± 0.43 |
| CUAUAGCAAUAUUACGUGAU | -1.33 ± 0.066 | -0.295 ± 0.1 |
| CUAUAGCAAUAUUACGUUAA | -4.29 ± 0.47 | -3.36 ± 0.42 |
| CUAUAGCAAUAUUACGUUUG | -1.38 ± 0.084 | -1.11 ± 0.11 |
| CUCAAGCAAUAUUACGAACG | -1.54 ± 0.089 | -0.932 ± 0.12 |
| CUCAAGCAAUAUUACGACUU | -2.2 ± 0.18 |  |
| CUCAAGCAAUAUUACGAGAA | -1.89 ± 0.31 | -1.1 ± 0.24 |
| CUCAAGCAAUAUUACGAGAG | -3.27 ± 0.22 | -1.81 ± 0.23 |
| CUCAAGCAAUAUUACGAGCU | -4.33 ± 0.3 | -4.08 ± 0.39 |
| CUCAAGCAAUAUUACGCACA | -2.17 ± 0.34 | -2.48 ± 0.28 |
| CUCAAGCAAUAUUACGCAUU | -3.4 ± 0.15 | -2.7 ± 0.19 |
| CUCAAGCAAUAUUACGCCCG | -0.954 ± 0.17 | -2.11 ± 0.21 |
| CUCAAGCAAUAUUACGCCUU |  | -3.47 ± 0.39 |
| CUCAAGCAAUAUUACGCGCA | -2.95 ± 0.16 | -2.21 ± 0.15 |
| CUCAAGCAAUAUUACGCUAU | -3.05 ± 0.18 | -2.17 ± 0.16 |
| CUCAAGCAAUAUUACGGACA | -2.5 ± 0.35 | -2.1 ± 0.32 |
| CUCAAGCAAUAUUACGGAGA | -2.83 ± 0.19 | -1.98 ± 0.15 |
| CUCAAGCAAUAUUACGGGAC | -3.7 ± 0.33 | -2.14 ± 0.3 |
